Article PMC3000793

Target: ASIC3-YFP (UniProt O35240)
Experiment: FRET or BRET

Sequence of UniProt O35240 (O35240 whole entry): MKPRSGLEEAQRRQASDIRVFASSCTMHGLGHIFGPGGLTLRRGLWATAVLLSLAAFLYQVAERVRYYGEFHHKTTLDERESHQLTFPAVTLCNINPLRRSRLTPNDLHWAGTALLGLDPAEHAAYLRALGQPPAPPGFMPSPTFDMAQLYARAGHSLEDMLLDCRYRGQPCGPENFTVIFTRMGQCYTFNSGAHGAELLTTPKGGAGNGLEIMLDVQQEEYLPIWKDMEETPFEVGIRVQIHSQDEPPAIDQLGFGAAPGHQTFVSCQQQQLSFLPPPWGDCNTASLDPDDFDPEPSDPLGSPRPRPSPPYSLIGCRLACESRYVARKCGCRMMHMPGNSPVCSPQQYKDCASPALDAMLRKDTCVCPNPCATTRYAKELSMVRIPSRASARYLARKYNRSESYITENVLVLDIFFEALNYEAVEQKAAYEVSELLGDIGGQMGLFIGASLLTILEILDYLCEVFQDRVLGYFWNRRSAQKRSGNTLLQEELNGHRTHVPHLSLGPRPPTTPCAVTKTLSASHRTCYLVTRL

FRET signal (donor dequenching): 20%
Substance: P2X5-CFP (from UniProt P51578 1-455) (receptor)
